The test has as its target human PD-L1 expressed on cells (human) (UniProt Q9NZQ7). Nature of the test: flow cytometry on 293T-PD-L1-CD3L cells, PE anti-human IgG, Mean PE-A; fit of a nearly flat control curve. (In general: In flow cytometry, cells or beads pass a laser one at a time.)

By EC50 is commonly meant the concentration at which the effect is half-maximal. A lower EC50 goes with greater potency.

As for Isotype control (antibody), the EC50 turned out to be 29.2 nM.

The values above are taken from patent publication US20250282874A1.
